Data on 1 molecule can be found in patent publication US20190330320A1.

For this test, the target named is hyperphosphorylated human tau P301L (4R0N) from rTg4510 mouse brain (64 and 70 kDa species) (human) (UniProt P10636). Nature of the test: binding to P301L human mutant tau isolated from 10 month old Tg4510 mice.
Chain of hyperphosphorylated human tau P301L (4R0N) from rTg4510 mouse brain (64 and 70 kDa species) (human) (P10636 other isoform, or with tags, fused parts or gaps P301L P301L): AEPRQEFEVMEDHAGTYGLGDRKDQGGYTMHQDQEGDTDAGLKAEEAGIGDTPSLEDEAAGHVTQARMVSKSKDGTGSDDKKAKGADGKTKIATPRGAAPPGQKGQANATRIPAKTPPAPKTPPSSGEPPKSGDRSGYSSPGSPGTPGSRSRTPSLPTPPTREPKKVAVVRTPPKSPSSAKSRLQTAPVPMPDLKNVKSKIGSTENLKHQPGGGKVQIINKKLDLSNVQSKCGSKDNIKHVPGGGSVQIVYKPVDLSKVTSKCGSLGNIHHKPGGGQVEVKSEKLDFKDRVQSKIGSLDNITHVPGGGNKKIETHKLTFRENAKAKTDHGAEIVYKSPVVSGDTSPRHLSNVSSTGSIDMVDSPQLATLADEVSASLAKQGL

B1: 4E4 (antibody, from another filing, V domains shown)
VH: EVQLVESGGGLVQPGGSLKLSCAASGFNFNISAIHWVRQASGKGLEWVGRIRSKSHNYATLYAASLKGRFTLSRDDSRNTAYLQMSSLQTEDMAVYYCTVLSANYDTFDYWGQGTLVTVSS
VL: SYELTQPPSVSVSPGQTARISCFGDTLPKQYTYWYQQKPGQAPVLVIYKDTERPSGIPERFSGSSSGTTVTLTISGVQAEDEADYYCLSADNSATWVFGGGTKVTVL
B1 came in with a TG/wt (binding to P301L tau from Tg4510 mice over wild type) of 1.
